# Source: PMC11645210 (Cell, 2024)
# How the values were obtained:
# Experiment in all cases: SPR
# Conditions in all cases: both partners purified
# SARS-CoV-2 BA.2.75.2 RBD = SARS-CoV-2 BA.2.75.2 RBD (SARS-CoV-2 Omicron BA.2.75.2, strain)
# SARS-CoV-2 BA.2 RBD = SARS-CoV-2 BA.2 RBD (SARS-CoV-2 Omicron BA.2, strain)
# SARS-CoV-2 CH.1.1 RBD = SARS-CoV-2 CH.1.1 RBD (SARS-CoV-2 Omicron CH.1.1, strain)
# SARS-CoV-2 XBB.1 RBD = SARS-CoV-2 XBB.1 RBD (SARS-CoV-2 Omicron XBB.1, strain)
# SARS-CoV-2 BA.1 RBD = SARS-CoV-2 BA.1 RBD (SARS-CoV-2, UniProt P0DTC2)
# SARS-CoV-2 XBB.1.5 RBD = SARS-CoV-2 XBB.1.5 RBD (SARS-CoV-2, UniProt P0DTC2)
# SARS-CoV-2 BQ.1.1 RBD = SARS-CoV-2 BQ.1.1 RBD (SARS-CoV-2, UniProt P0DTC2)
binder,measurement,setting,value
"VIR-7229 Fab fragment (Fab, V domains shown, source: ExpiCHO (IgG1); Fab by fragmentation of the IgG with the FabLACTICA Fab kit) VH: EVQLVESGGSVVQPGRALRLSCAASGITFSSFGMYWVRQAPGKGLEWLGYIAYDGSDTYYADSVKGRFTISRDNSKNTLYLQMNSLRIEDTAVYYCAKDYYPLLSYYYGLDVWGQGTTVTVSS VL: QSVLTQPRSVSGSPGQSVTISCTGTSSDVGAYNYVSWYQQHPGKAPKFMIYDVDQRPSGVPDRFSGSKSGNTASLIISGLQAEDEADYYCSSYAGSYIWVFGGGTQLTVL",Kd,SARS-CoV-2 BA.2.75.2 RBD,0.284 nM
same,koff,SARS-CoV-2 BA.2.75.2 RBD,0.000117 s⁻¹
same,kon,SARS-CoV-2 BA.2.75.2 RBD,431000 M⁻¹ s⁻¹
same,Kd,SARS-CoV-2 BA.2 RBD,0.396 nM
same,koff,SARS-CoV-2 BA.2 RBD,9.72e-05 s⁻¹
same,kon,SARS-CoV-2 BA.2 RBD,245000 M⁻¹ s⁻¹
same,Kd,SARS-CoV-2 CH.1.1 RBD,0.12 nM
same,koff,SARS-CoV-2 CH.1.1 RBD,6.63e-05 s⁻¹
same,kon,SARS-CoV-2 CH.1.1 RBD,586000 M⁻¹ s⁻¹
same,Kd,SARS-CoV-2 XBB.1 RBD,0.21 nM
same,koff,SARS-CoV-2 XBB.1 RBD,0.000108 s⁻¹
same,kon,SARS-CoV-2 XBB.1 RBD,524000 M⁻¹ s⁻¹
same,Kd,SARS-CoV-2 BA.1 RBD,0.434 nM
same,koff,SARS-CoV-2 BA.1 RBD,0.000124 s⁻¹
same,kon,SARS-CoV-2 BA.1 RBD,285000 M⁻¹ s⁻¹
same,Kd,SARS-CoV-2 XBB.1.5 RBD,0.06 nM
same,koff,SARS-CoV-2 XBB.1.5 RBD,4.09e-05 s⁻¹
same,kon,SARS-CoV-2 XBB.1.5 RBD,752000 M⁻¹ s⁻¹
same,Kd,SARS-CoV-2 BQ.1.1 RBD,0.0993 nM
same,koff,SARS-CoV-2 BQ.1.1 RBD,5.63e-05 s⁻¹
same,kon,SARS-CoV-2 BQ.1.1 RBD,582000 M⁻¹ s⁻¹
